Laboratory results taken from paper PMC6269442, “High resolution X-ray and NMR structural study of human T-cell immunoglobulin and mucin domain containing protein-3” (Scientific Reports, 2018).

Target: T1, tagless human TIM-3 IgV domain (human, UniProt Q8TDQ0 24-130)
T1 construct: N-terminal methionine added before Val24; T-cell immunoglobulin and mucin domain containing protein-3 (TIM-3, HAVCR2), human, IgV domain, Val24 thru Lys130; the same tagless protein was used for crystallization and ELISA; also called tagless hTIM-3 IgV domain; hTIM-3 IgV domain
Assay: ELISA; tagless hTIM-3 IgV (50 μl of 250 nM) coated on the plate; GST tagged hCEACAM1 IgV (0–15 μM) or GST control in Dulbeccos PBS; detected with goat polyclonal anti-GST-HRP
Conditions: both partners purified

T1 sequence (Q8TDQ0 other isoform, or with tags, fused parts or gaps): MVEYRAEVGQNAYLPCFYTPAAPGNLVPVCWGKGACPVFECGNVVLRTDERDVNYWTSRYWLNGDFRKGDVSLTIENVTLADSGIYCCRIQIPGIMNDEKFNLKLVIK

B1: glutathione-S-transferase (GST) tagged hCEACAM1 IgV-domain protein (domain or fragment, human, UniProt P13688 35-142, looked up)
chain: QLTTESMPFNVAEGKEVLLLVHNLPQQLFGYSWYKGERVDGNRQIVGYAIGTQQATPGPANSGRETIYPNASLLIQNVTQNDTGFYTLQVIKSDLVNEEATGQFHVYP
notes: carcinoembryonic antigen cell adhesion molecule 1 (CEACAM1), human, IgV (N-terminal) domain; Detected by an anti-GST-HRP antibody; also called GST-hCEACAM1 IgV fusion protein
  EC50: 3.13 µM
